Results on 8 molecules are retold here after patent US20210332131A1 (TIGATX, published 2021).

Assay [1] concerns the target T1, CD47 (human, UniProt Q08722 19-323).
T1 construct: whole, on cells; also called Cluster of Differentiation 47; human CD47
Description: flow cytometry on SKBR3 WT cells (CD20-/CD47+), detection anti-IgA PE, GeoMFI.
Description: (§1) After the pre-block the IgA antibodies were applied as described above. Samples were analyzed on a BD Canto II, and data has been analyzed using FlowJo (BD).

In assay [2] the target is T2, CD20 (UniProt P11836 1-297, limits assumed).
T2 construct: whole, on cells
T2 sequence (looked up): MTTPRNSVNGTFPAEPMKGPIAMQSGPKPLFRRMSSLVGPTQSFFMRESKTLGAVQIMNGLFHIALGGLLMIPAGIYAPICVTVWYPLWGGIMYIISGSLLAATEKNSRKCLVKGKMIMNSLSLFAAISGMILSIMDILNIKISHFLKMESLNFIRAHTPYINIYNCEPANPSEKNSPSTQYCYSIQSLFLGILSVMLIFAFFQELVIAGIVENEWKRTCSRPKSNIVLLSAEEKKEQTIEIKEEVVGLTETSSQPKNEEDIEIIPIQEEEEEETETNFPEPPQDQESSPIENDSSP
Kind of assay: flow cytometry, bispecific supernatant on SKBR3-CD20 cells, without or after pre-block of CD47 with m9, detection anti-IgA PE, GeoMFI; SKBR3 WT (CD20-) panel as comparison. (In general: A flow cytometer gives signals particle by particle.)
Description: as §1
Cells were fixed and measured by FACS.

Assay [3] addresses T1, CD47. Description: flow cytometry on human erythrocytes (CD235a+), bispecific supernatant, detection anti-human IgA, % positive cells.
Description: A Histopaque/ficoll isolation was performed to separate the erythrocytes from the PMN/PBMC. Plasma, PBMC, ficoll, histopaque and PMN have been discarded. The remaining pellet of erythrocytes were washed in PBS, spun for 5 minutes at 2400 rpm and pellet was resuspended in 5 mL PBS. […] Dilutions are done in FACS buffer (1% BSA in PBS). Incubated for 30 minutes at RT in the dark, excess unbound antibody was washed away with FACS buffer. 40 uL was added in FACS buffer diluted detection antibody (goat F(ab)′2 anti-human IgA-FITC (Southern Biotech; dilution 1:100), incubated for 30 minutes at RT in the dark, excess unbound antibody was washed away with FACS buffer. Samples were fixed by adding 1% PFA to pelleted cells. Measure on Canto II (BD), gating on CD235-positive events.
Assay [4] deals with T1, CD47. Kind of assay: flow cytometry, bispecific supernatant on SKBR3 WT (CD20-/CD47+) and SKBR3-CD20 cells, without or after pre-block of CD47 with mIgG1 anti-CD47 PerCP-Cy5.5, detection anti-IgA PE, GeoMFI.
Description: as §1
Cells were fixed and measured by FACS.
For assay [5], the target named is T1, CD47. Kind of assay: flow cytometry on SKBR3 WT cells (CD20-/CD47+), detection anti-IgA PE.
Description: as §1

T1 sequence (Q08722 19-323): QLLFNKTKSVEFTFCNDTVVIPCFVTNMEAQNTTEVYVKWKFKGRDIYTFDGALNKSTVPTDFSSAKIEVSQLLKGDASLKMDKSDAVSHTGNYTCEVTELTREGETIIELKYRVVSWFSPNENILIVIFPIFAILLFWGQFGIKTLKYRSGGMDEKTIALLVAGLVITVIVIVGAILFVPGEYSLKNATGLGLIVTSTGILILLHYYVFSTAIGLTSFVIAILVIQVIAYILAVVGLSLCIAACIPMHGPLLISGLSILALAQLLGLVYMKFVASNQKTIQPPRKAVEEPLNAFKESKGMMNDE

B1: 2.3D11-IgA2 (antibody, V domains shown)
VH: QVQLQESGPGLVKPSGTLSLTCAVSGVSIRSINWWNWVRQPPGKGLEWIGEIYHSGSTNYNPSLKSRVTISVDKSKNQFSLKLNSVTAADTAVYYCARDGGIAVTDYYYYGLDVWGQGTTVTVSS
VL: EIVLTQSPATLSLSPGERATLSCRASESVSSNLAWYQQKPGQAPRLLIYGAFNRATGIPARFSGSGSGTDFTLTISSLEPEDFAVYYCQQRSDWFTFGGGTKVEIK
notes: May be the same as IgA3.0-2.3D11; also called bivalent monospecific antibody 2.3D11; anti-CD47 antibody 2.3D11
Turning to B1, the binding result in assay [1] is listed as “binds”.

B2: DVD-IgA scFv_HC bispecific antibody #3 (5A3M5-scFv: Obi_HC) (bispecific antibody)
heavy: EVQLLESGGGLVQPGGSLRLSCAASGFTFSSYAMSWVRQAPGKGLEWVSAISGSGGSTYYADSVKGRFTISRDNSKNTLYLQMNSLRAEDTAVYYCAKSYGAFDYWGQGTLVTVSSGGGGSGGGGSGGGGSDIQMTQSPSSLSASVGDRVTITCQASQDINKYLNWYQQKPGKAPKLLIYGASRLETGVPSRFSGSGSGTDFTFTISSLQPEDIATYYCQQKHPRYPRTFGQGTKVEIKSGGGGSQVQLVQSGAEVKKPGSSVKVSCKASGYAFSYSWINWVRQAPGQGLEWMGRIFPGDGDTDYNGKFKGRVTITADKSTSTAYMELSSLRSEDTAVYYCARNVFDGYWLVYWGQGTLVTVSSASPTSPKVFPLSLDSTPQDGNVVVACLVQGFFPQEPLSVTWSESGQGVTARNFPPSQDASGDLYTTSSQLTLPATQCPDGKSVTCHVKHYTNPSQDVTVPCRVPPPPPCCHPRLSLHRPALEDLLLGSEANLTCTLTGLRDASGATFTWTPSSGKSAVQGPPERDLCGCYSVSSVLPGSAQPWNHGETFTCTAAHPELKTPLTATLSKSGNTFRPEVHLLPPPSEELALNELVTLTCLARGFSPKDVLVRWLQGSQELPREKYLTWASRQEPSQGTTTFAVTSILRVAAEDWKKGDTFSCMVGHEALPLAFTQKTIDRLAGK
light: DIVMTQTPLSLPVTPGEPASISCRSSKSLLHSNGITYLYWYLQKPGQSPQLLIYQMSNLVSGVPDRFSGSGSGTDFTLKISRVEAEDVGVYYCAQNLELPYTFGGGTKVEIKRTVAAPSVFIFPPSDEQLKSGTASVVCLLNNFYPREAKVQWKVDNALQSGNSQESVTEQDSKDSTYSLSSTLTLSKADYEKHKVYACEVTHQGLSSPVTKSFNRGEC
notes: Tetravalent homodimer; 5A3M5 (CD47) scFv on the Obinituzumab heavy chain; Tested as raw HEK293F supernatant
Regarding B2, in assay [2], the binding result is given as “binds”.

B3: DVD-IgA scFv_LC bispecific antibody #5 (5A3M5-scFv: Obi_LC) (bispecific antibody)
heavy: QVQLVQSGAEVKKPGSSVKVSCKASGYAFSYSWINWVRQAPGQGLEWMGRIFPGDGDTDYNGKFKGRVTITADKSTSTAYMELSSLRSEDTAVYYCARNVFDGYWLVYWGQGTLVTVSSASPTSPKVFPLSLDSTPQDGNVVVACLVQGFFPQEPLSVTWSESGQGVTARNFPPSQDASGDLYTTSSQLTLPATQCPDGKSVTCHVKHYTNPSQDVTVPCRVPPPPPCCHPRLSLHRPALEDLLLGSEANLTCTLTGLRDASGATFTWTPSSGKSAVQGPPERDLCGCYSVSSVLPGSAQPWNHGETFTCTAAHPELKTPLTATLSKSGNTFRPEVHLLPPPSEELALNELVTLTCLARGFSPKDVLVRWLQGSQELPREKYLTWASRQEPSQGTTTFAVTSILRVAAEDWKKGDTFSCMVGHEALPLAFTQKTIDRLAGK
light: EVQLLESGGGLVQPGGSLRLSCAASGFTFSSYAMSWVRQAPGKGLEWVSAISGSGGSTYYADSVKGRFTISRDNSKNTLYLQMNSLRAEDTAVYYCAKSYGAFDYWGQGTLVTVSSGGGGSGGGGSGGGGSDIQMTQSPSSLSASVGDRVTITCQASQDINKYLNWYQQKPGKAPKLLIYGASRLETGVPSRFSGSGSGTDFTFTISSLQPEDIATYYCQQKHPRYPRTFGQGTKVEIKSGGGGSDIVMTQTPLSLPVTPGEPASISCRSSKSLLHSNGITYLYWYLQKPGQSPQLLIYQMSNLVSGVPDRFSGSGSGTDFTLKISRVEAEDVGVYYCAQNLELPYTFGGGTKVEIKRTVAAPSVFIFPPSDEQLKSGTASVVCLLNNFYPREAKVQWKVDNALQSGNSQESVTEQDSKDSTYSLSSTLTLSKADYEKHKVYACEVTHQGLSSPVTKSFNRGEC
notes: Tetravalent homodimer; 5A3M5 (CD47) scFv on the Obinituzumab light chain
Regarding B3, in assay [2], the binding result was “binds”.

B4: DVD-IgA scFv_HC bispecific antibody #4 (Obi-scFv: 2.3D11_HC) (bispecific antibody)
heavy: QVQLVQSGAEVKKPGSSVKVSCKASGYAFSYSWINWVRQAPGQGLEWMGRIFPGDGDTDYNGKFKGRVTITADKSTSTAYMELSSLRSEDTAVYYCARNVFDGYWLVYWGQGTLVTVSSGGGGSGGGGSGGGGSDIVMTQTPLSLPVTPGEPASISCRSSKSLLHSNGITYLYWYLQKPGQSPQLLIYQMSNLVSGVPDRFSGSGSGTDFTLKISRVEAEDVGVYYCAQNLELPYTFGGGTKVEIKSGGGGSQVQLQESGPGLVKPSGTLSLTCAVSGVSIRSINWWNWVRQPPGKGLEWIGEIYHSGSTNYNPSLKSRVTISVDKSKNQFSLKLNSVTAADTAVYYCARDGGIAVTDYYYYGLDVWGQGTTVTVSSASPTSPKVFPLSLDSTPQDGNVVVACLVQGFFPQEPLSVTWSESGQGVTARNFPPSQDASGDLYTTSSQLTLPATQCPDGKSVTCHVKHYTNPSQDVTVPCRVPPPPPCCHPRLSLHRPALEDLLLGSEANLTCTLTGLRDASGATFTWTPSSGKSAVQGPPERDLCGCYSVSSVLPGSAQPWNHGETFTCTAAHPELKTPLTATLSKSGNTFRPEVHLLPPPSEELALNELVTLTCLARGFSPKDVLVRWLQGSQELPREKYLTWASRQEPSQGTTTFAVTSILRVAAEDWKKGDTFSCMVGHEALPLAFTQKTIDRLAGK
light: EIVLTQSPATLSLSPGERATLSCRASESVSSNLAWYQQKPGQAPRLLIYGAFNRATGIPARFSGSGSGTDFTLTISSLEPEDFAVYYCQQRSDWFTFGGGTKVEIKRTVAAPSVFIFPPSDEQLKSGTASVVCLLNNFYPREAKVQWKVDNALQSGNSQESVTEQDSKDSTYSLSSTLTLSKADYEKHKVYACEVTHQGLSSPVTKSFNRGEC
notes: Tetravalent homodimer; Obinituzumab (CD20) scFv on the 2.3D11 heavy chain; Tested as raw HEK293F supernatant; also called bispecific #4
Consider B4, for which the binding result in assay [2] and in assay [3] was “binds” throughout.

B5: DVD-IgA bispecific antibody #1 (5A3M5-Obi) (bispecific antibody)
heavy: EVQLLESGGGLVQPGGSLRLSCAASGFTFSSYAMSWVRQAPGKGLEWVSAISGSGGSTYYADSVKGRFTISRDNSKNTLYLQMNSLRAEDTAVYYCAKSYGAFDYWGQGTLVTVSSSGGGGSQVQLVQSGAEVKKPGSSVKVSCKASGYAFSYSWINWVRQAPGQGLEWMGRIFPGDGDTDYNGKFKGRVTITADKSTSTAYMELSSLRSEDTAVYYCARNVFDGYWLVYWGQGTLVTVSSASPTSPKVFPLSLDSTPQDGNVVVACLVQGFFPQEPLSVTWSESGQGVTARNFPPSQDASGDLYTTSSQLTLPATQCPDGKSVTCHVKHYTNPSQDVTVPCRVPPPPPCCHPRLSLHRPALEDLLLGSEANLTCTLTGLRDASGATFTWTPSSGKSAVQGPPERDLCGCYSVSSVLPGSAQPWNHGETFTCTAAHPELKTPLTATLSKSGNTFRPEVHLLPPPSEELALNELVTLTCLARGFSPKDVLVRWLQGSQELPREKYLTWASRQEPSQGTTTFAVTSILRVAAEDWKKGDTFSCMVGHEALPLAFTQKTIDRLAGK
light: DIQMTQSPSSLSASVGDRVTITCQASQDINKYLNWYQQKPGKAPKLLIYGASRLETGVPSRFSGSGSGTDFTFTISSLQPEDIATYYCQQKHPRYPRTFGQGTKVEIKSGGGGSDIVMTQTPLSLPVTPGEPASISCRSSKSLLHSNGITYLYWYLQKPGQSPQLLIYQMSNLVSGVPDRFSGSGSGTDFTLKISRVEAEDVGVYYCAQNLELPYTFGGGTKVEIKRTVAAPSVFIFPPSDEQLKSGTASVVCLLNNFYPREAKVQWKVDNALQSGNSQESVTEQDSKDSTYSLSSTLTLSKADYEKHKVYACEVTHQGLSSPVTKSFNRGEC
notes: Tetravalent homodimer, outer domain CD47 (5A3M5), inner domain CD20 (Obinituzumab)
Consider B5, for which the binding result was “binds” in assay [2] and “no binding” in assay [4].

B6: DVD-IgA scFv_LC bispecific antibody #6 (Obi-scFv: 2.3D11_LC) (bispecific antibody)
heavy: QVQLQESGPGLVKPSGTLSLTCAVSGVSIRSINWWNWVRQPPGKGLEWIGEIYHSGSTNYNPSLKSRVTISVDKSKNQFSLKLNSVTAADTAVYYCARDGGIAVTDYYYYGLDVWGQGTTVTVSSASPTSPKVFPLSLDSTPQDGNVVVACLVQGFFPQEPLSVTWSESGQGVTARNFPPSQDASGDLYTTSSQLTLPATQCPDGKSVTCHVKHYTNPSQDVTVPCRVPPPPPCCHPRLSLHRPALEDLLLGSEANLTCTLTGLRDASGATFTWTPSSGKSAVQGPPERDLCGCYSVSSVLPGSAQPWNHGETFTCTAAHPELKTPLTATLSKSGNTFRPEVHLLPPPSEELALNELVTLTCLARGFSPKDVLVRWLQGSQELPREKYLTWASRQEPSQGTTTFAVTSILRVAAEDWKKGDTFSCMVGHEALPLAFTQKTIDRLAGK
light: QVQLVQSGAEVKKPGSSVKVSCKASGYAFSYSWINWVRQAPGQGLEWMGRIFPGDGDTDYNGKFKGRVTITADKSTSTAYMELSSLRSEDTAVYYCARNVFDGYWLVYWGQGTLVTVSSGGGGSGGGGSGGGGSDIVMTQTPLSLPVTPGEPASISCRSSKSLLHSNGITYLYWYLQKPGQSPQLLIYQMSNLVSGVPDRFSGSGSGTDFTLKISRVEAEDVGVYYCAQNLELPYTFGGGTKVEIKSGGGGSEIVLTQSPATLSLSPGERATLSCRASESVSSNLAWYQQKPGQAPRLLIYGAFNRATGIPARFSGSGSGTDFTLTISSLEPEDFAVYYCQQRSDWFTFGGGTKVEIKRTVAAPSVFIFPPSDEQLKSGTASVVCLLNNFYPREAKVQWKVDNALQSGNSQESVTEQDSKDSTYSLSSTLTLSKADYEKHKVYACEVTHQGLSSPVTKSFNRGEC
notes: Tetravalent homodimer; Obinituzumab (CD20) scFv on the 2.3D11 light chain; also called bispecific #6
For the molecule B6, the binding result in assay [2] is “binds”.

B7: DVD-IgA bispecific antibody #2 (Obi-2.3D11) (bispecific antibody)
heavy: QVQLVQSGAEVKKPGSSVKVSCKASGYAFSYSWINWVRQAPGQGLEWMGRIFPGDGDTDYNGKFKGRVTITADKSTSTAYMELSSLRSEDTAVYYCARNVFDGYWLVYWGQGTLVTVSSSGGGGSQVQLQESGPGLVKPSGTLSLTCAVSGVSIRSINWWNWVRQPPGKGLEWIGEIYHSGSTNYNPSLKSRVTISVDKSKNQFSLKLNSVTAADTAVYYCARDGGIAVTDYYYYGLDVWGQGTTVTVSSASPTSPKVFPLSLDSTPQDGNVVVACLVQGFFPQEPLSVTWSESGQGVTARNFPPSQDASGDLYTTSSQLTLPATQCPDGKSVTCHVKHYTNPSQDVTVPCRVPPPPPCCHPRLSLHRPALEDLLLGSEANLTCTLTGLRDASGATFTWTPSSGKSAVQGPPERDLCGCYSVSSVLPGSAQPWNHGETFTCTAAHPELKTPLTATLSKSGNTFRPEVHLLPPPSEELALNELVTLTCLARGFSPKDVLVRWLQGSQELPREKYLTWASRQEPSQGTTTFAVTSILRVAAEDWKKGDTFSCMVGHEALPLAFTQKTIDRLAGK
light: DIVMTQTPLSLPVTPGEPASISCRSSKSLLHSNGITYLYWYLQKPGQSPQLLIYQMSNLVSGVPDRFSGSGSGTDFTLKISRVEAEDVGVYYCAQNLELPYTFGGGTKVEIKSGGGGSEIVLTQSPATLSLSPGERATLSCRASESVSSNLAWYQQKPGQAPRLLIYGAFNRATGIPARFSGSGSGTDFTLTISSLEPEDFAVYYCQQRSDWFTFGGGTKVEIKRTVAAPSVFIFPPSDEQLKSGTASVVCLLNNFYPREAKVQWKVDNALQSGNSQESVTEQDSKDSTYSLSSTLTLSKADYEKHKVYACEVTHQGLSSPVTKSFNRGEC
notes: Tetravalent homodimer, outer domain CD20 (Obinituzumab), inner domain CD47 (2.3D11); also called DVD-IgA Obi-2.3D11
In the case of B7, in assay [2], the binding result is recorded as “binds”.

B8: Obi-IgA3.0 (antibody, V domains shown)
VH: QVQLVQSGAEVKKPGSSVKVSCKASGYAFSYSWINWVRQAPGQGLEWMGRIFPGDGDTDYNGKFKGRVTITADKSTSTAYMELSSLRSEDTAVYYCARNVFDGYWLVYWGQGTLVTVSS
VL: DIVMTQTPLSLPVTPGEPASISCRSSKSLLHSNGITYLYWYLQKPGQSPQLLIYQMSNLVSGVPDRFSGSGSGTDFTLKISRVEAEDVGVYYCAQNLELPYTFGGGTKVEIKR
notes: Monospecific anti-CD20 IgA3.0 control; also called IgA3.0-Obi; anti-CD20 Obi antibody
As to B8, the binding result in assay [5] is given as “no binding (tested: 1 ug/mL (from paragraph 462, not on the sheet))”.
